Experimental data reported in the supplement of paper PMC9233669.
Variants at the floor of the assay were thinned out.

What was measured:
[1] = test system: biotinyl-Trp-oxazolone; assay: self-aminoacylation, catalytic enhancement (BWO) (fold over background); higher = more active; k-Seq, kA / k0A0; sequences stand for … in GGGAAUGGAUCCACAUCUACGAAUUC…UUCACUGCAGACUUGACGAAGCUG
In short: (§1)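 Working in 50 μL HEPES/NaCl/KCl/MgCl2/CaCl2 buffer with 5% acetonitrile at pH 6.9–7.0, mutagenized RNA pools (0.43 μM; 21-nt variable region) were reacted with 2–1250 μM of each biotinyl-aminoacyl-oxazolone for 90 minutes at room temperature. Streptavidin capture followed, with quantification by triplicate qPCR and Illumina sequencing. Catalytic enhancement is reported as median kA over the uncatalyzed rate, the low-activity peak of a bimodal Gaussian fit to the data.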

[2] = test system: biotinyl-Phe-oxazolone; assay: self-aminoacylation, catalytic enhancement (BFO) (fold over background); higher = more active; k-Seq, kA / k0A0; sequences stand for … in GGGAAUGGAUCCACAUCUACGAAUUC…UUCACUGCAGACUUGACGAAGCUG
In short: as §1

Sequence | self-aminoacylation [1] | self-aminoacylation [2]
AAGUUUGCCAAUUGUCGCAAG [Fam3.1 aminoacylation ribozyme variant] | 2.15 | 2.77
ACAAACUUCAAGCAAUCGGUC [Fam1B.1 aminoacylation ribozyme variant] | 9.7 | 15
ACACACUUCAAGCAAUCGGUC [Fam1B.1 aminoacylation ribozyme variant] | 13.1 | 27.1
ACGUUUGCUAAUAGUCGCAAG [Fam3.1 aminoacylation ribozyme variant] | 3.66 | 9.06
AGGUGUGCUAAUAGUCGCAAG [Fam3.1 aminoacylation ribozyme variant] | 2.52 | 5.87
AUACAUCAAACAAUCGGUCUG [Fam1A.1 aminoacylation ribozyme variant] | 2.68 | 4.05
AUACUUCAAACAAUCGGUCUG [Fam1A.1 aminoacylation ribozyme variant] | 9.11 | 14.7
AUGUUUGCUAAUAGUCGCAAG [Fam3.1 aminoacylation ribozyme variant] | 4.22 | 12.9
AUUCACCUCGGUCAUCAGGUG [Fam2.2 aminoacylation ribozyme variant] | 2.02 | 4.3
AUUGACCUAGGUCAUCGGGAG [Fam2.2 aminoacylation ribozyme variant] | 2.04 | 3.29
CAAAUUCAAACAAUCGGUCUG [Fam1A.1 aminoacylation ribozyme variant] | 3.94 | 6.39
CAACAUCAAACAAUCGGUCUG [Fam1A.1 aminoacylation ribozyme variant] | 3.73 | 7.46
CAACCCUUCAAGCAAUCGGUC [Fam1B.1 aminoacylation ribozyme variant] | 2.72 | 2.9
CAACUUCAAACAAUCGGUCCG [Fam1A.1 aminoacylation ribozyme variant] | 4.86 | 5.44
CAACUUCAAACAAUCGGUCUC [Fam1A.1 aminoacylation ribozyme variant] | 37.7 | 75.3
CCAAACUUCAACCAAUCGGUC [Fam1B.1 aminoacylation ribozyme variant] | 27.5 | 43.8
CCAAACUUCAAGCAAUCGGUU [Fam1B.1 aminoacylation ribozyme variant] | 4.36 | 5.01
CCACAAUUCAACCAAUCGGUC [Fam1B.1 aminoacylation ribozyme variant] | 5.9 | 6.75
CCACACUUCAAAUAAUCGGUC [Fam1B.1 aminoacylation ribozyme variant] | 13.7 | 23.8
CCACACUUCAAUCGAUCGGUC [Fam1B.1 aminoacylation ribozyme variant] | 2.43 | 2.48
CCACACUUCAAUGAAUCGGUC [Fam1B.1 aminoacylation ribozyme variant] | 10.3 | 14.4

Sequence | self-aminoacylation [1] | self-aminoacylation [2]
CCACUUCAAACAAUCAGUCUG [Fam1A.1 aminoacylation ribozyme variant] | 10.1 | 29.2
CCAGACUUCAAGUAAUCGGUC [Fam1B.1 aminoacylation ribozyme variant] | 8.35 | 11.5
CCAUACUUCAACCAAUCGGUC [Fam1B.1 aminoacylation ribozyme variant] | 17.2 | 32.7
CCAUACUUCAAUCAAUCGGUC [Fam1B.1 aminoacylation ribozyme variant] | 15.9 | 31.2
CCCCAAUUCAAGCAAUCGGUC [Fam1B.1 aminoacylation ribozyme variant] | 7.09 | 7.89
CCGCACUUCAAGAAAUCGGUC [Fam1B.1 aminoacylation ribozyme variant] | 10.3 | 12.2
CCUCACUUCAAGAAAUCGGUC [Fam1B.1 aminoacylation ribozyme variant] | 7.71 | 11
CCUCACUUCAAUCAAUCGGUC [Fam1B.1 aminoacylation ribozyme variant] | 17.9 | 39.5
CGACUCCAAACAAUCGGUCUG [Fam1A.1 aminoacylation ribozyme variant] | 3.11 | 3.55
CGAGUUCAAACAAUCGGUCUG [Fam1A.1 aminoacylation ribozyme variant] | 4.57 | 6.84
CGGCACUUCAAGCAAUCGGUC [Fam1B.1 aminoacylation ribozyme variant] | 20.1 | 34.7
CUAAUUCAAACAAUCGGCCUG [Fam1A.1 aminoacylation ribozyme variant] | 3.89 | 5.4
CUAAUUCAAACAAUCGGUCUC [Fam1A.1 aminoacylation ribozyme variant] | 2.9 | 6.39
CUAAUUCAAACAAUCGGUCUG [Fam1A.1 aminoacylation ribozyme variant] | 3.52 | 7.13
CUACACUUCAACCAAUCGGUC [Fam1B.1 aminoacylation ribozyme variant] | 30 | 59.2
CUACACUUCAAGGAAUCGGUC [Fam1B.1 aminoacylation ribozyme variant] | 4.18 | 3.89
CUACACUUCAAGUAAUCGGUC [Fam1B.1 aminoacylation ribozyme variant] | 7.07 | 13.1
CUACGUCAAAAAAUCGGUCUG [Fam1A.1 aminoacylation ribozyme variant] | 2.35 | 5.5
CUACUUCAAACAAUCAGUCAG [Fam1A.1 aminoacylation ribozyme variant] | 2.43 | 6.15
CUACUUCAAACAAUCAGUCUG [Fam1A.1 aminoacylation ribozyme variant] | 9.7 | 27.8
CUACUUCAAACAAUCGGACUG [Fam1A.1 aminoacylation ribozyme variant] | 7.87 | 17.5

Sequence | self-aminoacylation [1] | self-aminoacylation [2]
CUACUUCAAACAAUCGGUCCU [Fam1A.1 aminoacylation ribozyme variant] | 3.25 | 6.8
CUACUUCAAACAAUCGGUCGC [Fam1A.1 aminoacylation ribozyme variant] | 26.2 | 46.9
CUACUUCAAACAAUCGGUCUC [Fam1A.1 aminoacylation ribozyme variant] | 24.6 | 52.6
CUACUUCAAACAAUCGGUCUG [Fam1A.1 aminoacylation ribozyme variant] | 31.4 | 67.9
CUACUUCAAACAAUCGGUGUG [Fam1A.1 aminoacylation ribozyme variant] | 5.78 | 10.2
CUACUUCAAACAAUCGGUUUA [Fam1A.1 aminoacylation ribozyme variant] | 2.11 | 4.11
CUACUUCAAAUAAUCGGACUG [Fam1A.1 aminoacylation ribozyme variant] | 2.71 | 6.03
CUACUUCAAAUAAUCGGUAUG [Fam1A.1 aminoacylation ribozyme variant] | 3.96 | 7.28
CUACUUCAACCAAUCGGUAUG [Fam1A.1 aminoacylation ribozyme variant] | 4.25 | 9.31
CUACUUCAAUAAAUCGGUCUG [Fam1A.1 aminoacylation ribozyme variant] | 4.71 | 7.8
CUACUUCAAUGAAUCGGUCUG [Fam1A.1 aminoacylation ribozyme variant] | 5.68 | 7.24
CUAUUUCAAACAAUCGGCCUG [Fam1A.1 aminoacylation ribozyme variant] | 6.15 | 6.32
CUCCUUCAAACAAUCAGUCUG [Fam1A.1 aminoacylation ribozyme variant] | 7.05 | 20
CUCCUUCAAACAAUCGGUGUG [Fam1A.1 aminoacylation ribozyme variant] | 6.8 | 8.49
CUGCACUUCAAGCAAUCGGUC [Fam1B.1 aminoacylation ribozyme variant] | 28.1 | 52
CUUCUUCAAACAAUCGGUCCG [Fam1A.1 aminoacylation ribozyme variant] | 2.74 | 3.96
GUACUUCAAACAAUCGGUAUG [Fam1A.1 aminoacylation ribozyme variant] | 9.84 | 11.5
UCAAACUUCAAGCAAUCGGUC [Fam1B.1 aminoacylation ribozyme variant] | 15.9 | 25.8
UUACUCCAAACAAUCGGUCUG [Fam1A.1 aminoacylation ribozyme variant] | 2.69 | 3.73
UUACUUCAAACAAUCGGUCUU [Fam1A.1 aminoacylation ribozyme variant] | 9.31 | 17
